We go through one molecule from PMC8144621, “A two-hybrid system reveals previously uncharacterized protein–protein interactions within the Helicobacter pylori NIF iron–sulfur maturation system” (Scientific Reports, 2021).

Usually stoichiometry N stands for the number of molecules, sites or subunits per partner or assembly.

In data set [1] the target is T1, ApbC-(His)6, purified recombinant (Helicobacter pylori strain 26695, UniProt O24999 1-368).
T1 construct: H. pylori strain 26695 ApbC/HP0207, whole native hp0207 (apbC) ORF without its stop codon, cloned NdeI-XhoI in pET21b (pET-ApbC); predicted mass with tag 41.1 kDa; The name ApbC-(His)6 and the cloning without stop codon in pET21b put the tag at the C-terminus; the methods of the cross-linking call the protein 'native ApbC'; also called hexahistidine tagged-ApbC^WT; source: E. coli BL21 RIL, …
T1 sequence (looked up): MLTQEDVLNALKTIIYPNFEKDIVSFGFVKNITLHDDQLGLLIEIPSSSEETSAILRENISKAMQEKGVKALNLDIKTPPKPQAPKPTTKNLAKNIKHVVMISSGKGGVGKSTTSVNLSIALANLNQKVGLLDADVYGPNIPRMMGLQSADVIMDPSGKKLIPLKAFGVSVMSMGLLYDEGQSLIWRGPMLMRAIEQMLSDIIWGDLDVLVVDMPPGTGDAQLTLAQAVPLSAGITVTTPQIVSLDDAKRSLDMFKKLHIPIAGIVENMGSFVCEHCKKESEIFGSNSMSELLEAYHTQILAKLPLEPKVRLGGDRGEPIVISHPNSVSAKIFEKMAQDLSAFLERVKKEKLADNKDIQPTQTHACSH
Nature of the data set: cross-linking; purified proteins (15 µM) incubated alone or together for 60 min at 25 °C with 10 mM dimethyl suberimidate (DMS), no ATP; SDS 4-20% gradient PAGE, Coomassie. The following applies: both partners purified.

Data set [2] concerns the molecule itself. The description is as above.

B1: Nfu (HP1492), purified recombinant (natural protein, Helicobacter pylori, UniProt O26025 1-89, looked up)
chain: MIEFSDEDLQKPVRIVIEKIRPYLLKDGGNIEVLGVKSMKIYVALEGACKTCSSSKITLKNVIERQLKMDIHPNLEVVCLENAKEFDKL
notes: H. pylori Nfu/HP1492; also called recombinant Nfu; HpNfu
Take B1: in data set [1], the binding result is recorded as “binds”. In data set [2], the “stoichiometry N” value is 2.
